Experimental data from US20150238603A1.

Experiments:
Human CD38 (human) [1] = biological target: Human CD38 (human) (UniProt P28907); assay: flow cytometry, QuantiBRITE system, LP1 cells
Human CD38 (human) [2] = biological target: Human CD38 (human) (UniProt P28907); assay: flow cytometry, QuantiBRITE system, NCI-H929 cells
Human CD38 (human) [3] = biological target: Human CD38 (human) (UniProt P28907); assay: flow cytometry, QuantiBRITE system, RPMI8226 cells

Sequence of UniProt P28907 (P28907 whole entry): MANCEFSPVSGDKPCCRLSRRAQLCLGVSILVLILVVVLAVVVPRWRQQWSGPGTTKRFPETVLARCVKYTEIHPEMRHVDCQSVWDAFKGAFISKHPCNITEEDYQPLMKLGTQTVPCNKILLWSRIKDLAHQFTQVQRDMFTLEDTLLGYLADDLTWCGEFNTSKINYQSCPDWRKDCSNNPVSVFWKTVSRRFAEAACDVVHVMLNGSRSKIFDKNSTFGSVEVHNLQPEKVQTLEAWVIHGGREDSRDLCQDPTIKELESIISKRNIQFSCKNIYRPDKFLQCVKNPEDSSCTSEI

Antibodies Bound Per Cell (ABC) (antibodies bound per cell) (Human CD38 (human) [1]): 125000 | Antibodies Bound Per Cell (ABC) (antibodies bound per cell) (Human CD38 (human) [2]): 195000 | Antibodies Bound Per Cell (ABC) (antibodies bound per cell) (Human CD38 (human) [3]): > 677000
Substance: QuantiBRITE CD38-PE antibody (Becton Dickinson GmbH, Clone HB7, CAT #342371)
